From publication PMC12775002, “Human O-GlcNAcase catalytic-stalk dimer anchors flexible histone binding domains” (Communications Chemistry, 2025)

B1: human O-GlcNAcase, long isoform (OGA-L), full length (enzyme, UniProt O60502 1-916, looked up)
chain: MVQKESQATLEERESELSSNPAASAGASLEPPAAPAPGEDNPAGAGGAAVAGAAGGARRFLCGVVEGFYGRPWVMEQRKELFRRLQKWELNTYLYAPKDDYKHRMFWREMYSVEEAEQLMTLISAAREYEIEFIYAISPGLDITFSNPKEVSTLKRKLDQVSQFGCRSFALLFDDIDHNMCAADKEVFSSFAHAQVSITNEIYQYLGEPETFLFCPTEYCGTFCYPNVSQSPYLRTVGEKLLPGIEVLWTGPKVVSKEIPVESIEEVSKIIKRAPVIWDNIHANDYDQKRLFLGPYKGRSTELIPRLKGVLTNPNCEFEANYVAIHTLATWYKSNMNGVRKDVVMTDSEDSTVSIQIKLENEGSDEDIETDVLYSPQMALKLALTEWLQEFGVPHQYSSRQVAHSGAKASVVDGTPLVAAPSLNATTVVTTVYQEPIMSQGAALSGEPTTLTKEEEKKQPDEEPMDMVVEKQEETDHKNDNQILSEIVEAKMAEELKPMDTDKESIAESKSPEMSMQEDCISDIAPMQTDEQTNKEQFVPGPNEKPLYTAEPVTLEDLQLLADLFYLPYEHGPKGAQMLREFQWLRANSSVVSVNCKGKDSEKIEEWRSRAAKFEEMCGLVMGMFTRLSNCANRTILYDMYSYVWDIKSIMSMVKSFVQWLGCRSHSSAQFLIGDQEPWAFRGGLAGEFQRLLPIDGANDLFFQPPPLTPTSKVYTIRPYFPKDEASVYKICREMYDDGVGLPFQSQPDLIGDKLVGGLLSLSLDYCFVLEDEDGICGYALGTVDVTPFIKKCKISWIPFMQEKYTKPNGDKELSEAEKIMLSFHEEQEVLPETFLANFPSLIKMDIHKKVTDPSVAKSMMACLLSSLKANGSRGAFCEVRPDDKRILEFYSKLGCFEIAKMEGFPKDVVILGRSL
notes: human O-GlcNAcase (OGA), long isoform OGA-L, 103 kDa, full length, codon optimized; also called hOGA; full-length recombinant OGA; source: E. coli TOP10 (pBAD), purified (Talon resin for the arrays; HisTrap and size-exclusion chromatography for cryo-EM); not shown: His6, N-terminal, kept
B2: histone H4 1-19 peptide, K5,8,12,16Ac (peptide, UniProt P62805 2-20, looked up)
peptide: SGRGKGGKGLGKGGAKRHR
modifications: acetyl-lysine at K5, K8, K12 and K16
notes: histone H4 tail peptide, residues 1-19, on the array; also called H4 1-19 K^5,8,12,16Ac; H4K^5,8,12,16Ac; source: bought: Active Motif MODified Histone Peptide Array (peptide on the array)
B3: histone H4 1-19 peptide, K8,12,16Ac (peptide, UniProt P62805 2-20, looked up)
peptide: SGRGKGGKGLGKGGAKRHR
modifications: acetyl-lysine at K8, K12 and K16
notes: histone H4 tail peptide, residues 1-19, on the array; also called H4 1-19 K^8,12,16Ac; H4K^8,12,16Ac; source: bought: Active Motif MODified Histone Peptide Array (peptide on the array)

Legend:
[1] = molecular target: recombinant mononucleosome with the H4K5,8,12,16Ac modification (UniProt P62805); experiment: pull-down; 500 nM biotinylated mononucleosomes with 0, 25, 50, 100, 250 and 500 nM full-length OGA in OGA assay buffer, overnight 4 °C; captured on streptavidin magnetic beads; bound OGA-L quantified by immunoblot (anti-MGEA5); saturation plot and Scatchard analysis
[2] = molecular target: recombinant mononucleosome with the H3K36Me3 modification; experiment: as above
[3] = molecular target: the molecule itself; experiment: cryo-EM structure; apo full-length OGA-L, about 0.5 ug/ul in 20 mM Tris, 150 mM NaCl; Titan Krios 300 kV
[4] = molecular target: B1; experiment: peptide or protein array; Active Motif MODified histone peptide array (384 modified histone peptides in duplicate, immobilised); 100 nM protein in 20 mM Tris pH 7.5, 1 mM DTT, 0.5 mg/mL BSA, RT 1 h; detected with anti-His6 antibody; 3 or more arrays; settings: both partners purified

| Binder | Kd [1] [nM] | Kd [2] [nM] | binding result [3] | binding result [4] |
| --- | --- | --- | --- | --- |
| B1 | 220 | 290 | binds |  |
| B2 |  |  |  | binds |
| B3 |  |  |  | binds |
